Source: the supplement of paper PMC10567573

B1: RAB40B (parent)
chain: YSLTTSSTHKRSSLRKVKLVRPPQ
B2: APBB1IP (parent)
chain: PPEPLSQVSMWDQRWQDHQPLLPI

Variants of: B1
Assay: protein stability index of a GFP-peptide fusion (GPS, HEK-293T) (PSI 1-6); higher = more stable
Conditions: c terminus: a fixed tail appended
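Further: lentivirally expressed fusions sorted by FACS into six bins by GFP to DsRed ratio, PSI derived from sequencing read proportions per bin multiplied by bin number.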

Row | Variant | protein stability index
1 | YSLTTSSTHKRSSLRKVKLVLPPQ [R21L] | 3.61
2 | YSLTTSSTHKRSSLRKVKLVPPPQ [R21P] | 2.89
3 | YSLTTSSTHKRSSLRKVKLVMPPQ [R21M] | 2.51
4 | YSLTTSSTHKRSSLRKVKLVSPPQ [R21S] | 3.09
5 | YSLTTSSTHKRSSLRKVKLVWPPQ [R21W] | 2.25
6 | YSLTTSSTHKRSSLRKVKLVCPPQ [R21C] | 2.91
7 | YSLTTSSTHKRSSLRKVKLVHPPQ [R21H] | 2.9
8 | YSLTTSSTHKRSSLRKVKLVFPPQ [R21F] | 2.17
9 | YSLTTSSTHKRSSLRKVKLVEPPQ [R21E] | 3.41
10 | YSLTTSSTHKRSSLRKVKLVIPPQ [R21I] | 2.52
11 | YSLTTSSTHKRSSLRKVKLVKPPQ [R21K] | 3.55
12 | YSLTTSSTHKRSSLRKVKLVTPPQ [R21T] | 2.76
13 | YSLTTSSTHKRSSLRKVKKVRPPQ [L19K] | 4.09
14 | YSLTTSSTHKRSSLRKVKDVRPPQ [L19D] | 3.71
15 | YSLTTSSTHKRSSLRKVKTVRPPQ [L19T] | 3.25
16 | YSLTTSSTHKRSSLRKVKHVRPPQ [L19H] | 3.33
17 | YSLTTSSTHKRSSLRKVKQVRPPQ [L19Q] | 2.33
18 | YSLTTSSTHKRSSLRKVKSVRPPQ [L19S] | 3.45
19 | YSLTTSSTHKRSSLRKVKWVRPPQ [L19W] | 3.15
20 | YSLTTSSTHKRSSLRKVKEVRPPQ [L19E] | 3.04
21 | YSLTTSSTHKRSSLRKVKFVRPPQ [L19F] | 3.1
22 | YSLTTSSTHKRSSLRKVKAVRPPQ [L19A] | 4.17
23 | YSLTTSSTHKRSSLRKVKMVRPPQ [L19M] | 3.13
24 | YSLTTSSTHKRSSLRKVKRVRPPQ [L19R] | 3.18
25 | YSLTTSSTHKRSSLRKVKCVRPPQ [L19C] | 3.37

Row | Variant | protein stability index
26 | YSLTTSSTHKRSSLRKVKPVRPPQ [L19P] | 3.63
27 | YSLTTSSTHKRSSLRKVKYVRPPQ [L19Y] | 2.81
28 | YSLTTSSTHKRSSLRKVKGVRPPQ [L19G] | 3.7
29 | YSLTTSSTHKRSSLRKVKIVRPPQ [L19I] | 2.9
30 | YSLTTSSTHKRSSLRKVKVVRPPQ [L19V] | 3.19
31 | YSLTTSSTHKRSSLRKVKNVRPPQ [L19N] | 3.39
32 | YSLTTSSTHKRSSLRKVKLHRPPQ [V20H] | 2.92
33 | YSLTTSSTHKRSSLRKVKLARPPQ [V20A] | 3.54
34 | YSLTTSSTHKRSSLRKVKLLRPPQ [V20L] | 2.71
35 | YSLTTSSTHKRSSLRKVKLQRPPQ [V20Q] | 3.09
36 | YSLTTSSTHKRSSLRKVKLCRPPQ [V20C] | 3.25
37 | YSLTTSSTHKRSSLRKVKLMRPPQ [V20M] | 2.79
38 | YSLTTSSTHKRSSLRKVKLIRPPQ [V20I] | 2.48
39 | YSLTTSSTHKRSSLRKVKLRRPPQ [V20R] | 3.09
40 | YSLTTSSTHKRSSLRKVKLTRPPQ [V20T] | 3.25
41 | YSLTTSSTHKRSSLRKVKLWRPPQ [V20W] | 2.22
42 | YSLTTSSTHKRSSLRKVKLERPPQ [V20E] | 3.56
43 | YSLTTSSTHKRSSLRKVKLFRPPQ [V20F] | 2.67
44 | YSLTTSSTHKRSSLRKVKLKRPPQ [V20K] | 3.7
45 | YSLTTSSTHKRSSLRKVKLPRPPQ [V20P] | 3.56
46 | YSLTTSSTHKRSSLRKVKLSRPPQ [V20S] | 3.35
47 | YSLTTSSTHKRSSLRKVKLDRPPQ [V20D] | 3.66
48 | YSLTTSSTHKRSSLRKVKLNRPPQ [V20N] | 2.85
49 | YSLTTSSTHKRSSLRKVKLYRPPQ [V20Y] | 2.85
50 | YSLTTSSTHKRSSLRKVKLGRPPQ [V20G] | 2.71

Variants of: B2
Assay: as above
Conditions: c terminus: a fixed tail appended

Row | Variant | protein stability index
51 | PPGPLSQVSMWDQRWQDHQPLLPI [E3G] | 3.06
52 | PPAPLSQVSMWDQRWQDHQPLLPI [E3A] | 2.87
53 | PPHPLSQVSMWDQRWQDHQPLLPI [E3H] | 2.74
54 | PPCPLSQVSMWDQRWQDHQPLLPI [E3C] | 2.48
55 | PPFPLSQVSMWDQRWQDHQPLLPI [E3F] | 2.4
56 | PPDPLSQVSMWDQRWQDHQPLLPI [E3D] | 3.34
57 | LPEPLSQVSMWDQRWQDHQPLLPI [P1L] | 2.02
58 | YPEPLSQVSMWDQRWQDHQPLLPI [P1Y] | 1.72
59 | KPEPLSQVSMWDQRWQDHQPLLPI [P1K] | 2.73
60 | WPEPLSQVSMWDQRWQDHQPLLPI [P1W] | 2.48
61 | APEPLSQVSMWDQRWQDHQPLLPI [P1A] | 2.64
62 | DPEPLSQVSMWDQRWQDHQPLLPI [P1D] | 3.31
63 | TPEPLSQVSMWDQRWQDHQPLLPI [P1T] | 3.37
64 | CPEPLSQVSMWDQRWQDHQPLLPI [P1C] | 2.34
65 | RPEPLSQVSMWDQRWQDHQPLLPI [P1R] | 2.54
66 | GPEPLSQVSMWDQRWQDHQPLLPI [P1G] | 1.94
67 | QPEPLSQVSMWDQRWQDHQPLLPI [P1Q] | 2.89
68 | NPEPLSQVSMWDQRWQDHQPLLPI [P1N] | 2.87
69 | MPEPLSQVSMWDQRWQDHQPLLPI [P1M] | 3.28
70 | EPEPLSQVSMWDQRWQDHQPLLPI [P1E] | 2.84
71 | HPEPLSQVSMWDQRWQDHQPLLPI [P1H] | 3.07
72 | SPEPLSQVSMWDQRWQDHQPLLPI [P1S] | 2.87

Row | Variant | protein stability index
73 | IPEPLSQVSMWDQRWQDHQPLLPI [P1I] | 2.39
74 | VPEPLSQVSMWDQRWQDHQPLLPI [P1V] | 2.23
75 | FPEPLSQVSMWDQRWQDHQPLLPI [P1F] | 2.17
76 | PIEPLSQVSMWDQRWQDHQPLLPI [P2I] | 2.42
77 | PVEPLSQVSMWDQRWQDHQPLLPI [P2V] | 3.11
78 | PDEPLSQVSMWDQRWQDHQPLLPI [P2D] | 2.95
79 | PREPLSQVSMWDQRWQDHQPLLPI [P2R] | 2.5
80 | PLEPLSQVSMWDQRWQDHQPLLPI [P2L] | 2.09
81 | PYEPLSQVSMWDQRWQDHQPLLPI [P2Y] | 2.46
82 | PKEPLSQVSMWDQRWQDHQPLLPI [P2K] | 2.83
83 | PCEPLSQVSMWDQRWQDHQPLLPI [P2C] | 2.44
84 | PAEPLSQVSMWDQRWQDHQPLLPI [P2A] | 2.71
85 | PWEPLSQVSMWDQRWQDHQPLLPI [P2W] | 2.07
86 | PGEPLSQVSMWDQRWQDHQPLLPI [P2G] | 2.58
87 | PTEPLSQVSMWDQRWQDHQPLLPI [P2T] | 2.69
88 | PEEPLSQVSMWDQRWQDHQPLLPI [P2E] | 3.02
89 | PHEPLSQVSMWDQRWQDHQPLLPI [P2H] | 2.65
90 | PQEPLSQVSMWDQRWQDHQPLLPI [P2Q] | 2.52
91 | PSEPLSQVSMWDQRWQDHQPLLPI [P2S] | 2.83
92 | PMEPLSQVSMWDQRWQDHQPLLPI [P2M] | 2.38
93 | PFEPLSQVSMWDQRWQDHQPLLPI [P2F] | 1.92
94 | PNEPLSQVSMWDQRWQDHQPLLPI [P2N] | 3.09
